Test results from the Human Domainome abundance scans (Beltran et al. 2025).

B1: Tripartite motif-containing protein 49C, residues 87 to 133; numbered along this chain, P0CI26 (parent)
chain: SSEEQMCGTHRETKKIFCEVDRSLLCLLCSSSQEHRYHRHRPIEWAA

Variants of: B1
Experiment: abundance fitness (aPCA) (normalised: wild type 0, dead -1); higher = more abundant; growth selection in yeast, the domain comes from the species named
Conditions: Homo sapiens

Abundance fitness of substitutions, site by site:
G8: K -0.02; S -0.086; A -0.005; F 0.229; Q -0.104; D -0.022
W45: P 0.346; A 0.282; D 0.479; M 0.255; T 0.345; I 0.12; C 0.18; Y 0.256; R 0.111; K 0.518
V20: I -0.144; A 0.141; C -0.446; L -0.406; E 0.101; Y -0.036
E44: W -0.598; S -0.089; N -0.065; M -0.488; R -0.507; T -0.2; Q -0.489
S2: N -0.538; L -0.204; R -0.268; I -0.017; D -0.354; A -0.21; E -0.222; Y -0.647; P -0.042
F17: Q -0.653; K -0.274; N -0.675
R22: Y -0.47; S -0.132; E 0.449; T -0.764; M -0.251; G 0.174; L -0.327
C7: W -0.499; Q -0.832; I -0.797; A -0.935; S -0.636; H -0.429
L24: A -0.044; W -0.095; D -0.294; G -0.253; N -0.212
Q5: S 0.114; Y -0.002; R -0.097; I -0.291; L -0.044; G -0.244; V -0.009; D 0.159; F -0.424
S1: F 0.294; A -0.49; E -0.003
A47: H -0.036; G -0.078; E -0.375; L -0.493; V 0.142; P 0.019; D 0.438; M -0.025
Q33: T -0.116; H -0.197; M -0.257; P 0.391; Y 0.159
L25: Y -0.02; F -0.581; M -0.5; D -0.725; K -0.59; Q -0.388; S -0.394
D21: I -0.789; K 0.022; L -0.573; E -0.142; G -0.357
L27: Y 0.059; Q 0.135; W -0.017; T 0.106; S 0.058; M 0.231; I -0.063; D 0.158
S31: I -0.065; Q -0.152; T -0.328; L -0.493; E -0.123
Y37: C -0.032; E 0.178; S 0.171; F -0.059; K 0.058; R -0.109; W -0.218
P42: G -0.007; I -0.377; R -0.221; Q -0.081; C -0.049; Y -0.26; L -0.324; F -0.289
S23: H -0.277; A -0.035; K -0.035; Q -0.152; F -0.944
H38: W -0.708; N -0.781; I -0.892; Q -0.562; V -0.851; G -0.84; T -0.599; A -0.573
S32: Y -0.224; L -0.313; F -0.465; Q -0.116; M -0.141; R 0.017
L28: Y 0.056; F -0.422; W -0.368; M 0.024; R -0.068; C -0.389; T 0.204; K 0.003
C29: A -0.675; I -1.2; N -0.816; P -0.715; H -0.418
H10: P -0.549; F -1.07; K -0.714; R -0.728; T -0.772; V -0.788; G -0.671; W -0.976
R36: E -0.308; N -0.028; L -0.152
